We go through eleven molecules from US20240270821A1, “GIP/GLP1/GCG TRI-RECEPTOR AGONISTS AND USES THEREOF” (priority 2023, published 2024).

Assay in all cases: cell-based or functional assay
Assay [1] has as its target hGLP-1R (Homo sapiens, UniProt P43220).
Assay [2] addresses T1, human GIP receptor (human) (UniProt P48546).
T1 sequence (looked up): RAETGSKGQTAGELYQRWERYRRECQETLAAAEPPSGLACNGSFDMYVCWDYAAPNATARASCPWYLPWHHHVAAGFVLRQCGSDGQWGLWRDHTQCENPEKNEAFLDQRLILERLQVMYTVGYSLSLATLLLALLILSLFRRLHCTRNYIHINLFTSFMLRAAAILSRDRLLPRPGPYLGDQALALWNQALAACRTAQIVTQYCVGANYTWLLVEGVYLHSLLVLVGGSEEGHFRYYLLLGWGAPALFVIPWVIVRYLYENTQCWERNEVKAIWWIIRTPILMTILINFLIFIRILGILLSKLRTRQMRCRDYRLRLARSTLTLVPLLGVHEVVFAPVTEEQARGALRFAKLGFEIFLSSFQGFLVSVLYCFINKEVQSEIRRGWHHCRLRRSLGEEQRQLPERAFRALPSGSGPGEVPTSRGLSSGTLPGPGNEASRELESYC

For assay [3], the target named is human glucagon receptor (human) (UniProt P47871).
Chain of human glucagon receptor (human) (P47871 26-477): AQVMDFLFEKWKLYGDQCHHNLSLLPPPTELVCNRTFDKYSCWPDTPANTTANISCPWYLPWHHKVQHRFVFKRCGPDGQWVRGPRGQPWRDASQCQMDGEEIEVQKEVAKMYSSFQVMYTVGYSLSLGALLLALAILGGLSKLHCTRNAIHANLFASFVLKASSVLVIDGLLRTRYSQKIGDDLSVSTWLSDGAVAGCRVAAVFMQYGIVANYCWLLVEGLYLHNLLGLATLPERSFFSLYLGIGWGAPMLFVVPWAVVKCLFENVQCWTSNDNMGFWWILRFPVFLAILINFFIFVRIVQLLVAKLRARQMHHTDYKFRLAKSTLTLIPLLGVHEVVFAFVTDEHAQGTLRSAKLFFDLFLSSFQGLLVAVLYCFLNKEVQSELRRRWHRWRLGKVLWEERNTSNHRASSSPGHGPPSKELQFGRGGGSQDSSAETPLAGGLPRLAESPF

Chain of hGLP-1R (P43220 24-463): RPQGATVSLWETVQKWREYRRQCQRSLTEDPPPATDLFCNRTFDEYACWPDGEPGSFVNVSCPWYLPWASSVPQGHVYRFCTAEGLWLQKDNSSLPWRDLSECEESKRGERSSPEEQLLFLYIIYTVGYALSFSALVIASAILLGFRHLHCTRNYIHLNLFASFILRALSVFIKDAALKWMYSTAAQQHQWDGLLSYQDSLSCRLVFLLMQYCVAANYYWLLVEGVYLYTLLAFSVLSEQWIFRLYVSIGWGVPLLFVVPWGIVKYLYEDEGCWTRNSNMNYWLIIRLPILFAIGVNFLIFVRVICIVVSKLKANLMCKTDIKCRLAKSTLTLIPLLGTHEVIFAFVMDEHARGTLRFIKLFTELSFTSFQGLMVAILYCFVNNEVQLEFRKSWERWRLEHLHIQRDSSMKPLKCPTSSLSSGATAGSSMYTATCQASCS

B1: Example 522 (peptide)
chain: YXQGTXTSDXXIXLDXKAQXXFIEYLIEGGPSSGEPPPSGTE
modifications: not fully specified; printed without C-terminal amide; synthetic construct; SITE 2: note = 2-Aminoisobutyric Acid; SITE 6: note = alpha-methyl-2-fluoro-L-phenylalanine; SITE 10: note = 3-(4-Pyridyl)-L-alanine; SITE 11: note = alpha-methyl-L-serine; SITE 13: note = alpha-methyl-leucine; SITE 16: note = L-ornithine; SITE 17: note = Lysine is chemically mo
For B1, the figures for the Relative cAMP EC50 in assay [1], in assay [2] and in assay [3] were 0.51 nM, 0.033 nM and 6.32 nM, respectively. Also, the cAMP Rel EC50 (1% HSA) in assay [1] is 35.5 nM; in assay [2] it was 1.95 nM; in assay [3], 441 nM.

B2: Example 531 (peptide)
chain: YXQGTXTSDXXILLDXKAQXXFIEYLIEGGPSSGEPPPSGTE
modifications: synthetic construct; SITE 2: note = 2-Aminoisobutyric Acid; SITE 6: note = alpha-methyl-2-fluoro-L-phenylalanine; SITE 10: note = 3-(4-Pyridyl)-L-alanine; SITE 11: note = alpha-methyl-L-serine; SITE 16: note = L-ornithine; SITE 17: note = Lysine is chemically modified through conjugation of the epsi
Regarding B2, the Relative cAMP EC50 in assay [1] turned out to be 0.356 nM; in assay [2], 0.0694 nM; in assay [3], 3.79 nM. For the same molecule, the cAMP Rel EC50 (1% HSA) amounted to 37.8 nM in assay [1], 5.2 nM in assay [2] and 465 nM in assay [3].

B3: Example 526 (peptide)
chain: YXQGTXTSDXXIXLDXKAQXNFIEXLQEGGPSSGEPPPEGTE
modifications: synthetic construct; SITE 2: note = 2-Aminoisobutyric Acid; SITE 6: note = alpha-methyl-2-fluoro-L-phenylalanine; SITE 10: note = 3-(4-Pyridyl)-L-alanine; SITE 11: note = alpha-methyl-L-serine; SITE 13: note = alpha-methyl-leucine; SITE 16: note = L-ornithine; SITE 17: note = Lysine is chemically mo
In the case of B3, the figures for the Relative cAMP EC50 in assay [1], in assay [2] and in assay [3] were 0.421 nM, 0.0364 nM and 8.62 nM, respectively. Further, the values for the cAMP Rel EC50 (1% HSA) in assay [1], in assay [2] and in assay [3] were 22.9 nM, 2.12 nM and 530 nM, respectively.

B4: Example 532 (peptide)
chain: YXQGTXTSDXXIXLDXKAQXXFIEYLLEGGPSSGEPPPSGTE
modifications: synthetic construct; SITE 2: note = 2-Aminoisobutyric Acid; SITE 6: note = alpha-methyl-2-fluoro-L-phenylalanine; SITE 10: note = 3-(4-Pyridyl)-L-alanine; SITE 11: note = alpha-methyl-L-serine; SITE 13: note = alpha-methyl-leucine; SITE 16: note = L-ornithine; SITE 17: note = Lysine is chemically mo
Consider B4, for which the results for the Relative cAMP EC50 in assay [1], in assay [2] and in assay [3] were 0.577 nM, 0.0159 nM and 1.37 nM, respectively. In addition, the cAMP Rel EC50 (1% HSA) turned out to be 47.3 nM in assay [1], 1.49 nM in assay [2] and 157 nM in assay [3].

B5: Example 544 (peptide)
chain: YXQGTXTSDXXIXLDXKAQXXFIEXLAEGGPSSGEPPPSGTE
modifications: synthetic construct; SITE 2: note = 2-Aminoisobutyric Acid; SITE 6: note = alpha-methyl-2-fluoro-L-phenylalanine; SITE 10: note = 3-(4-Pyridyl)-L-alanine; SITE 11: note = alpha-methyl-L-serine; SITE 13: note = alpha-methyl-leucine; SITE 16: note = L-ornithine; SITE 17: note = Lysine is chemically mo
Turning to B5, the Relative cAMP EC50 in assay [1] came out at 0.623 nM; in assay [2], 0.041 nM; in assay [3], 2.71 nM. Further, the cAMP Rel EC50 (1% HSA) stood at 43 nM in assay [1], 2.4 nM in assay [2] and 171 nM in assay [3].

B6: Example 542 (peptide)
chain: YXQGTXTSDXXIXLDXKAQXXFIEXLTEGGPSSGEPPPSGTE
modifications: synthetic construct; SITE 2: note = 2-Aminoisobutyric Acid; SITE 6: note = alpha-methyl-2-fluoro-L-phenylalanine; SITE 10: note = 3-(4-Pyridyl)-L-alanine; SITE 11: note = alpha-methyl-L-serine; SITE 13: note = alpha-methyl-leucine; SITE 16: note = L-ornithine; SITE 17: note = Lysine is chemically mo
Regarding B6, the figures for the Relative cAMP EC50 in assay [1], in assay [2] and in assay [3] were 0.388 nM, 0.0336 nM and 5.03 nM, respectively. Besides, the cAMP Rel EC50 (1% HSA) in assay [1] is 29.6 nM; in assay [2] it was 1.69 nM; in assay [3], 256 nM.

B7: Example 546 (peptide)
chain: YXQGTXTSDXXILLDXKAQXXFIEXLQEGGPSSGEPPPEGAE
modifications: synthetic construct; SITE 2: note = 2-Aminoisobutyric Acid; SITE 6: note = alpha-methyl-2-fluoro-L-phenylalanine; SITE 10: note = 3-(4-Pyridyl)-L-alanine; SITE 11: note = alpha-methyl-L-serine; SITE 16: note = L-ornithine; SITE 17: note = Lysine is chemically modified through conjugation of the epsi
B7: the Relative cAMP EC50 came to 0.517 nM in assay [1], 0.25 nM in assay [2] and 3.67 nM in assay [3]. Besides, the cAMP Rel EC50 (1% HSA) in assay [1] turned out to be 34.4 nM; in assay [2] it was 11.9 nM; in assay [3], 225 nM.

B8: Example 530 (peptide)
chain: YXQGTXTSDXXIXLDXKAQXXFIEYLSEGGPSSGEPPPSGTE
modifications: synthetic construct; SITE 2: note = 2-Aminoisobutyric Acid; SITE 6: note = alpha-methyl-2-fluoro-L-phenylalanine; SITE 10: note = 3-(4-Pyridyl)-L-alanine; SITE 11: note = alpha-methyl-L-serine; SITE 13: note = alpha-methyl-leucine; SITE 16: note = L-ornithine; SITE 17: note = Lysine is chemically mo
In the case of B8, the Relative cAMP EC50 in assay [1] was 4.91 nM; in assay [2], 0.874 nM; in assay [3], 17.1 nM. The cAMP Rel EC50 (1% HSA) stood at 437 nM in assay [1], 63.7 nM in assay [2] and 1280 nM in assay [3].

B9: Example 528 (peptide)
chain: YXQGTXTSDXXIXLDXKAQXQFIEXLQEGGPSSGEPPPEGTE
modifications: synthetic construct; SITE 2: note = 2-Aminoisobutyric Acid; SITE 6: note = alpha-methyl-2-fluoro-L-phenylalanine; SITE 10: note = 3-(4-Pyridyl)-L-alanine; SITE 11: note = alpha-methyl-L-serine; SITE 13: note = alpha-methyl-leucine; SITE 16: note = L-ornithine; SITE 17: note = Lysine is chemically mo
Take B9: the Relative cAMP EC50 in assay [1] turned out to be 0.434 nM; in assay [2] it was 0.0333 nM; in assay [3] it was 7 nM. For the same molecule, the cAMP Rel EC50 (1% HSA) in assay [1] stood at 24.3 nM; in assay [2], 1.55 nM; in assay [3], 474 nM.

B10: Example 598 (peptide)
chain: YXQGTXTSDXXIXLDXKAQXXFIEXLTEGGPSSGEPPPEGTEEE
modifications: non-natural residues; (γGlu)2-C18 diacid on Lys; C-terminal amide; synthetic construct; SITE 2: note = 2-Aminoisobutyric Acid; SITE 6: note = alpha-methyl-2-fluoro-L-phenylalanine; SITE 10: note = 3-(4-Pyridyl)-L-alanine; SITE 11: note = alpha-methyl-L-serine; SITE 13: note = alpha-methyl-leucine; SITE 16: note = L-ornithine; SITE 17: note = Lysine is chemically mo
As for B10, the Relative cAMP EC50 in assay [1] was found to be 0.886 nM; in assay [2], 0.0927 nM; in assay [3] it was 8.79 nM. In addition, the cAMP Rel EC50 (in the presence of 1% HSA) in assay [1] amounted to 47.3 nM; in assay [2] it was 3.49 nM; in assay [3] it was 457 nM.

B11: Example 525 (peptide)
chain: YXQGTXTSDXXIXLDXKAQXNFIEXLQEGGPSSGEPPPEGT
modifications: synthetic construct; SITE 2: note = 2-Aminoisobutyric Acid; SITE 6: note = alpha-methyl-2-fluoro-L-phenylalanine; SITE 10: note = 3-(4-Pyridyl)-L-alanine; SITE 11: note = alpha-methyl-L-serine; SITE 13: note = alpha-methyl-leucine; SITE 16: note = L-ornithine; SITE 17: note = Lysine is chemically mo
Take B11: the figures for the Relative cAMP EC50 in assay [1], in assay [2] and in assay [3] were 0.426 nM, 0.0351 nM and 10 nM, respectively. Besides, the cAMP Rel EC50 (1% HSA) was 20.2 nM in assay [1], 2.07 nM in assay [2] and 460 nM in assay [3].
